US20050136004A1 (ZymoGenetics, published 2005)

Key:
[1] = molecular target: T1, IL-20RA/IL-20RB heterodimeric receptor (human), on cells (human, UniProt Q9UHF4 30-553; Q6UXL0 30-311); assay: cell-based or functional assay
T1 sequence 1: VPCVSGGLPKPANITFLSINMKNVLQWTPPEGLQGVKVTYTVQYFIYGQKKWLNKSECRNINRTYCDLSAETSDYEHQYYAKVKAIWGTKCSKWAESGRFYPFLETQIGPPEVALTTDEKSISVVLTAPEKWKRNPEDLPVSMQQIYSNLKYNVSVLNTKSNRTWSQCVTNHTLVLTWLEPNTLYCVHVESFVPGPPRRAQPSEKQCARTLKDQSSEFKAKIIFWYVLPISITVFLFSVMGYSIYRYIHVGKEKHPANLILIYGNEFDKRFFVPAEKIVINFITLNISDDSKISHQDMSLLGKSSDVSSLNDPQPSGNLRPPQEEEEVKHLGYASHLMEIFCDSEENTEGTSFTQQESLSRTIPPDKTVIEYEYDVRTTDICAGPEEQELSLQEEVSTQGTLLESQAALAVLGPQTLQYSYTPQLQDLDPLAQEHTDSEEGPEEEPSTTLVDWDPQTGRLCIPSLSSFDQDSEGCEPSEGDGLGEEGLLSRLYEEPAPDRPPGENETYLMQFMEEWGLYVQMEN
T1 sequence 2: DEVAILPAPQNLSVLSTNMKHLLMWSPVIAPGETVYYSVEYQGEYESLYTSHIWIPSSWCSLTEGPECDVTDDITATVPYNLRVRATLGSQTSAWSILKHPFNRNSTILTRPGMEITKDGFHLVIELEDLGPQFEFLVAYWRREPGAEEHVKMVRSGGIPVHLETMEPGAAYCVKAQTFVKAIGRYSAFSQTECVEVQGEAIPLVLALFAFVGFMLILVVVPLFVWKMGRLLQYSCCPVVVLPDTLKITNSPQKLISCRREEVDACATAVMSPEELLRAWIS

[2] = molecular target: T1, IL-20RA/IL-20RB heterodimeric receptor …; assay: 125I-IL-20 binding on BHK cells expressing IL-20RA and IL-20RB
Description: (§1) The specificity and affinity of IL-20 for its receptor was determined using BHK cells stably transfected with IL-20RA, IL-20RB or both receptor subunits. […] Binding of ¹²⁵I-labeled IL-20 was eliminated in the presence of 100-fold excess of unlabeled IL-20 but not with 100-fold excess of the unrelated cytokine, IL-21.

[3] = molecular target: T2, IL-20RB (human), on cells (human, UniProt Q6UXL0 30-311); assay: radiolabeled ligand binding on stably transfected BHK cells
T2 construct: This id covers the subunit expressed alone on BHK or BaF3/KZ134 transfectants; It is also used for endogenous IL-20RB on THP-1 cells; also called DIRS1; pDIRS1
T2 sequence: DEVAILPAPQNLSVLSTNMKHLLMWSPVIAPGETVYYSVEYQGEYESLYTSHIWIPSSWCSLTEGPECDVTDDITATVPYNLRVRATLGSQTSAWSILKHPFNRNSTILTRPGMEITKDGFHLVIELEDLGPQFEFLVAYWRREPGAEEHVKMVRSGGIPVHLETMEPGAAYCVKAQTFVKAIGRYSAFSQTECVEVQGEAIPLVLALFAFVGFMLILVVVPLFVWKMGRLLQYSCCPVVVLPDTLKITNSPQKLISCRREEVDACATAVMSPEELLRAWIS
Description: as §1

[4] = molecular target: T3, IL-20RA (human), on cells (human, UniProt Q9UHF4 30-553); assay: as above
T3 construct: This id covers the subunit expressed alone on BHK or BaF3/KZ134 transfectants; It is also used for endogenous IL-20RA on human monocytic cells and in human lung tissue; also called ZcytoR7; IL-20RA only
T3 sequence: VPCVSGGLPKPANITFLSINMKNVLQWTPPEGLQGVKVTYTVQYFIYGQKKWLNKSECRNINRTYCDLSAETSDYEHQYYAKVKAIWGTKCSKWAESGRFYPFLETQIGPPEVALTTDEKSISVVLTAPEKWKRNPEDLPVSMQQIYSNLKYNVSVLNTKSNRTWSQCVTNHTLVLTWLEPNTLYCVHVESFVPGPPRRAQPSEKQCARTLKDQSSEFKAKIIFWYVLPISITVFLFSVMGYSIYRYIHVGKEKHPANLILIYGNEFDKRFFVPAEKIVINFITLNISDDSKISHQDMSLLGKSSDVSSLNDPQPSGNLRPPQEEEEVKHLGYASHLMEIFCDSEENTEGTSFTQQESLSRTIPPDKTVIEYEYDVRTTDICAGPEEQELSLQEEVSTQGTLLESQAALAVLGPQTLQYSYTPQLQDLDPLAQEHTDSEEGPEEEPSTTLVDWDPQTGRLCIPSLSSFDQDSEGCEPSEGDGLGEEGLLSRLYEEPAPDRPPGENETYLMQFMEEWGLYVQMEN
Description: as §1

Binder	Alamar Blue proliferation of BaF3/KZ134/IL-20RA/IL-20RB cells at 1 pM IL-20 [1] [fold over background]	Alamar Blue proliferation of BaF3/KZ134/IL-20RA/IL-20RB cells at 1 nM IL-20 [1] [fold over background]	Kd [2] [nM]	binding result [3]	binding result [4]
human IL-20-Bv (purified mature recombinant human IL-20 produced in Baculovirus) (ligand) LKTLNLGSCVIATNLQEIRNGFSDIRGSVQAKDGNIDIRILRRTESLQDTKPANRCCLLRHLLRLYLDRVFKNYQTPDHYTLRKISSLANSFLTIKKDLRLCHAHMTCHCGEEAMKKYSQILSHFEKLEPQAAVVKALGELDILLQWMEETE	2	~30	–	–	–
IL-20 (human IL-20, mature polypeptide; preparation or host not specified) (ligand, also called Zcyto10; IL-20 protein) LKTLNLGSCVIATNLQEIRNGFSDIRGSVQAKDGNIDIRILRRTESLQDTKPANRCCLLRHLLRLYLDRVFKNYQTPDHYTLRKISSLANSFLTIKKDLRLCHAHMTCHCGEEAMKKYSQILSHFEKLEPQAAVVKALGELDILLQWMEETE	–	–	~1.5	no binding	no binding
